Measurements: doi:10.1101/2024.02.21.581378 (bioRxiv, 2024)

Columns and labels:
[1] = target: macaque TMPRSS2 N469Y on transfected 293T cells (macaque)
[2] = target: T1, TMPRSS2^S441A (human TMPRSS2 residues 107-492, zymogen, uncleaved) (human, UniProt O15393 107-492, S441A); test: crystal structure
[3] = target: cleaved soluble TMPRSS2^S441A (TMPRSS2^S441A-Cl) (human, UniProt O15393 107-255; O15393 256-492, S441A); test: BLI
[4] = target: T1, TMPRSS2^S441A (human TMPRSS2 residues …); test: BLI

T1 sequence (O15393 107-492 S441A): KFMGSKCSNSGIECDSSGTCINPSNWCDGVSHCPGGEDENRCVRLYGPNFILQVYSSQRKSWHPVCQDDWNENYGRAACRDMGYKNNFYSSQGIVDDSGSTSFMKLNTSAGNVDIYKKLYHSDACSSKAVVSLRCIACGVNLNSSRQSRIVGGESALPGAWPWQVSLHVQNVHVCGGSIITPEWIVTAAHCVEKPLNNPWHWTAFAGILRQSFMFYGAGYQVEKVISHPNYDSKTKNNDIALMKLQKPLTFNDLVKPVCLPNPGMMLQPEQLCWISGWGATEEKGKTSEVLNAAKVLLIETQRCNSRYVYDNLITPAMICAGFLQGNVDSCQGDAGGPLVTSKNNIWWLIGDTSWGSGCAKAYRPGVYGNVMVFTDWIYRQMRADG
cleaved soluble TMPRSS2^S441A (TMPRSS2^S441A-Cl), sequence (O15393 107-255, chain 1 of 2): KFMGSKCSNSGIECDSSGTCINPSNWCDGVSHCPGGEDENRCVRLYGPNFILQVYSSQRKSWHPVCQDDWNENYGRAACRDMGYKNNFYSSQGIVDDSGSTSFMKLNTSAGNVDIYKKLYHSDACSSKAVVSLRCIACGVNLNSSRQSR
cleaved soluble TMPRSS2^S441A (TMPRSS2^S441A-Cl), sequence (O15393 256-492 S441A, chain 2 of 2): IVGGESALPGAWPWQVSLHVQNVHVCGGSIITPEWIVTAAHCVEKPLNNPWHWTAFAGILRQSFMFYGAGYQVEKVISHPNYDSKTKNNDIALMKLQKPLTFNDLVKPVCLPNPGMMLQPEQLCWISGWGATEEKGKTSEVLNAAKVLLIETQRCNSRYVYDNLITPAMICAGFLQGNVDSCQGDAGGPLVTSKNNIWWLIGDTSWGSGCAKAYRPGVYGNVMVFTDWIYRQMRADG
soluble biotinylated HKU1B spike, sequence (Q0ZME7 13-1351): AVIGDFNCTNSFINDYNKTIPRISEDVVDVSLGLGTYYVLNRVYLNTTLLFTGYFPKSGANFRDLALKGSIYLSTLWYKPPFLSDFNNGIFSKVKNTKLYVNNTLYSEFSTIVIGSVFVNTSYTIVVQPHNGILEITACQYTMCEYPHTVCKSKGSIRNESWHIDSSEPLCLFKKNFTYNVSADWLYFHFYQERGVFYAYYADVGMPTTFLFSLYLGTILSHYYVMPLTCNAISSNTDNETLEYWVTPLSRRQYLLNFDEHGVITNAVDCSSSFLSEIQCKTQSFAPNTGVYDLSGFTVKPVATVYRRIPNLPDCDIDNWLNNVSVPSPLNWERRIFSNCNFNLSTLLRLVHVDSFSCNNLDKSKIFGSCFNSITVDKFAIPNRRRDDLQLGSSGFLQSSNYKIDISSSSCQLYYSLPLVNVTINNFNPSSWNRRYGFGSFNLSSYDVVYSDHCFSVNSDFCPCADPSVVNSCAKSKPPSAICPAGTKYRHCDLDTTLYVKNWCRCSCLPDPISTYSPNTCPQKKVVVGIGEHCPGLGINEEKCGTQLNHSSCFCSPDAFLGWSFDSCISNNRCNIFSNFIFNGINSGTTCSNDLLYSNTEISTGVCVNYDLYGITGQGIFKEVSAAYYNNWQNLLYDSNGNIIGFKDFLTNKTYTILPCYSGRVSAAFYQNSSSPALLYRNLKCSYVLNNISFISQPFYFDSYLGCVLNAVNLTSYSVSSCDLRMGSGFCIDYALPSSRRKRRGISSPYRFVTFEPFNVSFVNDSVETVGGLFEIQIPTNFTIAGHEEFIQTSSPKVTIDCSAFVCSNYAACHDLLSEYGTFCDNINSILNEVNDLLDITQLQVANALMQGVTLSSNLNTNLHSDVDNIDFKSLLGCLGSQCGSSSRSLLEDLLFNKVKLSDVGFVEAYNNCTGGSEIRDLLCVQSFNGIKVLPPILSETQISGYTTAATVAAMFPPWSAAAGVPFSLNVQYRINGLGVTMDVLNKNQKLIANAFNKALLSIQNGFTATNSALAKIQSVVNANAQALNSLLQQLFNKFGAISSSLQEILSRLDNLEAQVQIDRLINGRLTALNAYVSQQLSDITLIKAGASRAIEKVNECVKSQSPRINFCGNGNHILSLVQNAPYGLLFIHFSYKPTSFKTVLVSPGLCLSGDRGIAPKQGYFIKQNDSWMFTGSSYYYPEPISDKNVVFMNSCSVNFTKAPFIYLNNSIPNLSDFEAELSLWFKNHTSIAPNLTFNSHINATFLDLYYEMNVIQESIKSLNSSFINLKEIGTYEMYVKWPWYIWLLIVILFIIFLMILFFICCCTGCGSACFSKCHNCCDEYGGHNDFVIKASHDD

Row | Molecule | binding result [3] | binding result [4] | other results
1 | soluble biotinylated HKU1B spike (from UniProt Q0ZME7) (natural protein) | – | – | entry of HKU1B pseudoviruses, fold increase against wild-type macaque TMPRSS2 [1]: 10 fold
2 | HKU1B RBD and subdomain-1 (RBD-SD1, residues 307-675 of the spike protein) (domain or fragment) SGFTVKPVATVYRRIPNLPDCDIDNWLNNVSVPSPLNWERRIFSNCNFNLSTLLRLVHVDSFSCNNLDKSKIFGSCFNSITVDKFAIPNRRRDDLQLGSSGFLQSSNYKIDISSSSCQLYYSLPLVNVTINNFNPSSWNRRYGFGSFNLSSYDVVYSDHCFSVNSDFCPCADPSVVNSCAKSKPPSAICPAGTKYRHCDLDTTLYVKNWCRCSCLPDPISTYSPNTCPQKKVVVGIGEHCPGLGINEEKCGTQLNHSSCFCSPDAFLGWSFDSCISNNRCNIFSNFIFNGINSGTTCSNDLLYSNTEISTGVCVNYDLYGITGQGIFKEVSAAYYNNWQNLLYDSNGNIIGFKDFLTNKTYTILPCYSG | – | – | binding result [2]: binds
3 | HKU1B RBD (residues 330-614 of the spike protein), wild type (domain or fragment) DNWLNNVSVPSPLNWERRIFSNCNFNLSTLLRLVHVDSFSCNNLDKSKIFGSCFNSITVDKFAIPNRRRDDLQLGSSGFLQSSNYKIDISSSSCQLYYSLPLVNVTINNFNPSSWNRRYGFGSFNLSSYDVVYSDHCFSVNSDFCPCADPSVVNSCAKSKPPSAICPAGTKYRHCDLDTTLYVKNWCRCSCLPDPISTYSPNTCPQKKVVVGIGEHCPGLGINEEKCGTQLNHSSCFCSPDAFLGWSFDSCISNNRCNIFSNFIFNGINSGTTCSNDLLYSNTEI | – | – | Kd [3]: 30 nM
4 | HKU1B RBD (residues 330-614) S529A (domain or fragment) DNWLNNVSVPSPLNWERRIFSNCNFNLSTLLRLVHVDSFSCNNLDKSKIFGSCFNSITVDKFAIPNRRRDDLQLGSSGFLQSSNYKIDISSSSCQLYYSLPLVNVTINNFNPSSWNRRYGFGSFNLSSYDVVYSDHCFSVNSDFCPCADPSVVNSCAKSKPPSAICPAGTKYRHCDLDTTLYVKNWCRCSCLPDPISTYAPNTCPQKKVVVGIGEHCPGLGINEEKCGTQLNHSSCFCSPDAFLGWSFDSCISNNRCNIFSNFIFNGINSGTTCSNDLLYSNTEI | binds | – | –
5 | HKU1B RBD (residues 330-614) Y528A (domain or fragment) DNWLNNVSVPSPLNWERRIFSNCNFNLSTLLRLVHVDSFSCNNLDKSKIFGSCFNSITVDKFAIPNRRRDDLQLGSSGFLQSSNYKIDISSSSCQLYYSLPLVNVTINNFNPSSWNRRYGFGSFNLSSYDVVYSDHCFSVNSDFCPCADPSVVNSCAKSKPPSAICPAGTKYRHCDLDTTLYVKNWCRCSCLPDPISTASPNTCPQKKVVVGIGEHCPGLGINEEKCGTQLNHSSCFCSPDAFLGWSFDSCISNNRCNIFSNFIFNGINSGTTCSNDLLYSNTEI | binds | binds | –
6 | HKU1B RBD (residues 330-614) L510R (domain or fragment) DNWLNNVSVPSPLNWERRIFSNCNFNLSTLLRLVHVDSFSCNNLDKSKIFGSCFNSITVDKFAIPNRRRDDLQLGSSGFLQSSNYKIDISSSSCQLYYSLPLVNVTINNFNPSSWNRRYGFGSFNLSSYDVVYSDHCFSVNSDFCPCADPSVVNSCAKSKPPSAICPAGTKYRHCDLDTTRYVKNWCRCSCLPDPISTYSPNTCPQKKVVVGIGEHCPGLGINEEKCGTQLNHSSCFCSPDAFLGWSFDSCISNNRCNIFSNFIFNGINSGTTCSNDLLYSNTEI | binds | binds | –
7 | HKU1B RBD (residues 330-614) K487A (domain or fragment) DNWLNNVSVPSPLNWERRIFSNCNFNLSTLLRLVHVDSFSCNNLDKSKIFGSCFNSITVDKFAIPNRRRDDLQLGSSGFLQSSNYKIDISSSSCQLYYSLPLVNVTINNFNPSSWNRRYGFGSFNLSSYDVVYSDHCFSVNSDFCPCADPSVVNSCAASKPPSAICPAGTKYRHCDLDTTLYVKNWCRCSCLPDPISTYSPNTCPQKKVVVGIGEHCPGLGINEEKCGTQLNHSSCFCSPDAFLGWSFDSCISNNRCNIFSNFIFNGINSGTTCSNDLLYSNTEI | binds | binds | –
